Measurements taken from patent US20240400689A1 (ANTENGENE BIOLOGICS, published 2024).

T1: mouse CD276 protein (mouse, UniProt Q8VE98 29-316)
T1 construct: whole, on cells; also called mCD276; CHO-S-mCD276
T1 sequence (looked up): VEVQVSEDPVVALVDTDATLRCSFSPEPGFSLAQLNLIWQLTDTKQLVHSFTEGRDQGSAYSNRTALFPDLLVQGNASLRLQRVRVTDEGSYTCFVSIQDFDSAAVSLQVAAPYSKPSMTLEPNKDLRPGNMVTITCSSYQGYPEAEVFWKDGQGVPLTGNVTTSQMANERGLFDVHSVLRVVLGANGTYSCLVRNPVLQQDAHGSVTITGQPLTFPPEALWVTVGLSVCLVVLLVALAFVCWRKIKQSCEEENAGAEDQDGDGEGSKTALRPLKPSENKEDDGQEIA

T2: human CD276 protein (human, UniProt Q5ZPR3 29-534)
T2 construct: whole, on cells; for SKOV3 and the other cancer lines the protein is the cells' own; also called B7-H3; B7H3
T2 sequence (looked up): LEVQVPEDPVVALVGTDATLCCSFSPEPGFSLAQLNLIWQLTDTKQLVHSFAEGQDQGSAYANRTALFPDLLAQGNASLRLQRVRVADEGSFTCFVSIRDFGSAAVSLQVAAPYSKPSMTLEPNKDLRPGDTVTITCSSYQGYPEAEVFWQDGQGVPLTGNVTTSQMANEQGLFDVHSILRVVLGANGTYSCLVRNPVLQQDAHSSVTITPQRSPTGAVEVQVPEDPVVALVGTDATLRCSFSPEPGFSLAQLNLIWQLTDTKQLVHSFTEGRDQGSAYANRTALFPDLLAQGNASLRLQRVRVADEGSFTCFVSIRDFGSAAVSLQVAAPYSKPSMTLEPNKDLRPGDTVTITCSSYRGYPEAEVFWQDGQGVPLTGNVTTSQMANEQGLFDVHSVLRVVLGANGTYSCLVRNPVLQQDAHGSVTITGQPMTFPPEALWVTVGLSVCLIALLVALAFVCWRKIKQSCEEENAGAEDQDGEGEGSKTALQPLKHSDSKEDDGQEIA


Key:
mouse CD276 protein = molecular target: T1, mouse CD276 protein; test: FACS on CHO-S-mCD276 cells
Procedure: (§1) Screening & Expansion—The subcloning plates were screened by protein or cell-based Elisa, and the subclones with good binding ability were expanded to 24-wells for confirmation tests. The specificity and cross-reactivity of these subclones were confirmed with FACS analysis. Briefly, parental CHO-S cells, CHO-S-hCD276, CHO-S cell line stably over-expressing Macaca fascicularis CD276, CHO-K1 S, cell line stably over-expressing mouse CD276 were incubated with antibodies produced by each subclone respectively. Fluorescent dye-conjugated secondary antibody was used to detect the binding of the primary antibody with the cells. Median fluorescence intensity was measured by FACS analysis.

[1] = molecular target: T3, Macaca fascicularis CD276 (Macaca fascicularis); test: FACS on CHO-S-cynoCD276 cells
T3 construct: whole, on cells; also called cynomolgus monkey CD276; cynoCD276
Procedure: as §1

human CD276 protein [2] = molecular target: T2, human CD276 protein; test: FACS on CHO-S-hCD276 cells
Procedure: as §1

human CD276 protein [3] = molecular target: T2, human CD276 protein; test: FACS on SKOV3 cells
Description: Sequences of 31 mouse antibodies from Table 5 were selected to generate and produce human IgG1 chimeric antibodies. The binding affinity of these antibodies and bench mark antibody, Enoblituzumab (see U.S. Pat. No. 8,802,091, MGA271, specifically with a construct designated as hBRCA84D-2) and MGC018 (an antibody-drug-conjugate, in which the mAb MGA017 (human IgG1) is conjugated via a cleavable linker to the prodrug seco-DUocarmycin hydroxyBenzamide Azaindole (DUBA), an alkylating agent that can damage DNA in both dividing and non-dividing cells, thereby causing cell death) with human patient derived ovarian cancer cell line, SKOV3, was determined by FACS analysis.
1. Digested cells using Trypsin (1×); Centrifuged the harvested cells at 300 g for 3 min and discarding the supernatant. […] 2. Washed the cells 2 times with FACS buffer by centrifuging at 300 g for 3 min and discarding the supernatant. [0445] 3. […] Kept the cells in dark for FACS analysis.

| Binder | FACS MFI (mouse CD276 protein) | FACS MFI [1] | FACS MFI (human CD276 protein [2]) | EC50 (human CD276 protein [3]) [µg/mL] | MFI (Max) (human CD276 protein [3]) |
| --- | --- | --- | --- | --- | --- |
| 8-C3-E3-F3 (antibody, V domains shown, mouse monoclonal antibody (hybridoma)) VH: EVQLVESGGGLVQPGGSLKLSCAASGFTFSNYGLSWVRLTPDKRLEVVATIGSYGGNTYYPDSVKGRFTISRDNAKNTLYLQMSSLKSEDTAIYYCARDIYYGNSEAWFAYWGQGTLVTVSA VL: DIVMTQAAFSNPVTLGTSASISCRSSKSLLHSNGITYLYWYLQKPGQSPQLLIYQMSNLASGVPDRFSSSGSETDFTLRISRVEAEDVGVYYCAQNLELPWTFGGGTKLEIK | 1320 | 12100 | 63900 | – | – |
| 8-B4-F5-E11 (antibody, V domains shown, mouse monoclonal antibody (hybridoma)) VH: QVQLQQPGAELVKPGASVKLSCKASGDTFTSYWMHWVKQRPGQGLEWIGMIHPDSGTRNYNEKVMSKATLNVDKSSSTAYLHLSSLTSEDSAVYYCSRSYGSRLAWFAYWGQGTLVTVSA VL: QAVVTQESALTTSPGETVTLTCRSSTGAVTTSNFANWVQEKPDHLFTGLIGGTNNRAPGVPARFSGSLIGDKAALTITGAQTEDEAVYFCALWYTNHFIFGSGTKVTVL | 7370 | 58600 | 40400 | – | – |
| 9-B9-H11-G7 (antibody, V domains shown, mouse monoclonal antibody (hybridoma)) VH: DVQLQESGPGLVKPSQSLSLTCSVTGYSITSGYYWNWIRQFPGNKLEWMVYISYDGTNNYNPSLKNRISITRDTSKNQFFLKLNSVTTEDTATYYCARGDSNSYYFDYWGQGTTLTVSS VL: QAVVTQESALTTSPGGTVILTCRSSTGAVTTSNYANWVQEKPDHLFTGLIGGTSNRAPGVPVRFSGSLIGDKAALTITGAQTEDDAMYFCALWYRTHYVFGGGTKVTVL | 1360 | 146000 | 96800 | – | – |
| 9-G12-D6-A11 (antibody, V domains shown, mouse monoclonal antibody (hybridoma)) VH: DVQLQVSGPGLVKPSQSLSLTCSVAGYSITSDYYWNWIRQFPGNKLEWMGYISYDGTNNYNPSLKNRISITRDTSKGQFFLKFNSVTTEDTATYYCARGKDGSYYFDYWGQGTTLTVSS VL: QAVVTQESALTTSPGGTVILTCRSSTGAVTTSNYANWVQEKPDHLFTGLIGGTSNRAPGVPVRFSGSLIGDKAALTITGAQTEDDAMYFCALWYRTHYVFGGGTMVTVL | 1420 | 35700 | 53200 | – | – |
| 13-E4-G9-A4 (antibody, V domains shown, mouse monoclonal antibody (hybridoma)) VH: EVMLVESGGGLVKPGGSLKFSCAASGFTFITYAMSWVRQTPEKRLEWVATISGGGIDTYYPDSVKGRFTISRDNAKNTLYLQVNSLRSEDTAMYYCTRQGSQGWGAMDYWGQGTSVTVSS VL: QIVLTQSPPIMSASPGERVTMTCRASSRVSFMHWYQQKSGTSPRRWIYETSKLASGVPDRFSGSVSGTSYSLTISSMEAEDAATYYCQQWSSNPLTFGAGTKLELK | 1370 | 16800 | 149000 | – | – |
| 6-H11-G5-D8 (human IgG1 chimeric antibody) (antibody, V domains shown, human IgG1 chimeric antibody of the mouse clone) VH: EVQLQESGPELVKPGTSVKLSCKASGYTFTSYDINWVRQRPEQGLEWIGWIFPGNGDTYYNEKFKGKATLTSDKSSSTAYMQLSRLTSEDSAVYFCARDLRLGTFDYWGQGTTLTVSS VL: QIVLTQSPEIMSASPGEKVTMTCSASSSVSYIHWYQQKSGTSPKRWIYDTSKLASGVPARFSGSGSGTSYSLTIRSMEAEDAATYYCQQGSSNPRTFGGGTKLELK | – | – | – | 1.78 | 200 |

More lines, now with the values ahead:

| FACS MFI (mouse CD276 protein) | FACS MFI [1] | FACS MFI (human CD276 protein [2]) | EC50 (human CD276 protein [3]) [µg/mL] | MFI (Max) (human CD276 protein [3]) | Binder |
| --- | --- | --- | --- | --- | --- |
| 1300 | 35100 | 47000 | – | – | 30-E2-G7-G7 (antibody, V domains shown, mouse monoclonal antibody (hybridoma)) VH: EVQLQESGGGLVKPGGSLKLSCAASGFTFSYYAMSWVRQTPEKRLEWVATINGDGSHTYYPDSVRGRFTISRDNAKNTLYLQVSSLRSEDTAMYYCASLLQLGPFWGQGTTLTVSS VL: DIVMTQSQKFMSTSVGDRVSVTCKASQNVGTNVAWYHQRPGQSPKPLIYSASYRYSGVPDRFTGSGSGTDFTLTISNVQSEDLAEYFCQQYNNYPLTFGSGTKLEIK |
| 17400 | 4320 | 5650 | – | – | 10-G6-C4-B2 (antibody, V domains shown, mouse monoclonal antibody (hybridoma)) VH: EVQLVESGGGLVQPGGSLRLSCATSGFTLSDYYMSWVRQPPGKAPEWLGFMRNKANGYTTEYSASVRGRFTISRDTSQSIIYLQMNTLRAEDGATYYCVRDRDGRPFAYWGQGTLVTVSA VL: DIVMTQSPSSLTVTAGEKVTMSCKSSQSLLNSINQKNFLTWYQQKPGQPPKLLIYWASTRESGVPDRFTGSGSGTDFTLTISSVQAEDLAIYYCQNDYTYPLTFGTGTKLELK |
| 1340 | 13200 | 77000 | – | – | 20-C5-D7-D3 (antibody, V domains shown, mouse monoclonal antibody (hybridoma)) VH: EVQLVESGGDLVKPGGSLKLSCAASGFTFRSYGMSWVRQTPDKRLEWVATISGGGNYTYYPDSVKGRFTISRDNAKNTLYLQMSSLKSEDTAMYYCARHEGLPLDYWGQGTTLTVSS VL: DIQMTQSPASLSASVGETVTITCRASENIYSYLAWYQQKQGKSPQLLVYNAKTLAEGVPSRFSGSGSGTQFSLKINSLQPEDFGNFYCQHHYGTPTWTFGGGTKLEIK |
| 6610 | 99400 | 62500 | – | – | 15-G1-D1-E3 (antibody, V domains shown, mouse monoclonal antibody (hybridoma)) VH: QVQLQQPGAELVKPGTSVKLSCKASGYTFTSYWIHWVKQRPGQGLEWIGMIHPKSGTVDYNEKFKSKATLTADKSSNTAYMQLSSLTSEASVVYYCARGENYDYRPQFVYWGQGTLVTVSA VL: QLVLTQSSSASFSLGASAKLTCTLSSQHSTYTIEWYQQQPLKPPKYVMELKKDGSHRTGDGIPDRFSGSSSGADRYLSISNIQPEDEAIYICGVGDTIKEQFVYVFGGGTKVTVL |
| 8220 | 96300 | 138000 | – | – | 30-C7-C11-D4 (antibody, V domains shown, mouse monoclonal antibody (hybridoma)) VH: EVQLVESGPGLVKPSQSLSLTCTVTGYSITSDYAWNWIRQFPGNKLEWMGYISHSGSTSYNPSLKSRISITRDTSKNQFFLQLNSVTTEDTATYYCARSLGRRWYFDVWGAGTTVTVSS VL: DIVMTQSPSSLAMSVGQKVTLSCKSSQSLLNSSTQKNYLAWYQQKPGQSPKLLVYFASTRDSGVPDRFIGSGSGTEFTLTISSVQAEDLADYFCQQHYIIPFTFGAGTKLEIK |
| – | 10100 | 400000 | – | – | 10-B9-D10-A12 (antibody, V domains shown, mouse monoclonal antibody (hybridoma)) VH: EVQLQESGPELVRPGVSVKISCKGSGYTFTDYTMHWVKLSHAKSLEWIGVISTYYGNTNYNQKFKGKATLTVDKSSSTAYMELARLTSEDSAIYYCARASYGSGYGPYYWYFDVWGAGTTVTVSS VL: DIQMTQSPASLFASVGETVTITCRASEKIYSYLAWYFQKQGKSPQFLVYNANALAEGVPSRFSGSGSGTQFSLKINSLQPEDFGTYYCQHHYGTPVTFGAGSKLELK |
| 67000 | 51100 | 88800 | – | – | 20-F8-B5-G2 (antibody, V domains shown, mouse monoclonal antibody (hybridoma)) VH: EVQLQESGPSLVKPSQTLSLTCSVTGDSITSAYWNWIRKFPGNKLEYMGYISNSGSTYYNPSLKSRISITRDTSKNQYYLQLNSVTTEDTGTYYCVRGERYYGYGAYWGQGTLVTVSA VL: DIVMTQATPSVPVTPGESISISCRSSKSLLHSNGNTYLYWFLQRPGQSPQLLIYRMSNLASGVPDRFSGSGSGTAFTLRISRVEAEDVGVYYCMQHLEYPFTFGAGTKLELK |
| 1160 | 39100 | 148000 | – | – | 25-C8-D7-C5 (antibody, V domains shown, mouse monoclonal antibody (hybridoma)) VH: EVQLQESGGGLVKPGGSLKFSCAASGFTFSTYAMSWVRQTPEKRLEWVATISGGGIDTYYPDSVKGRFTISRDNAKNTLYLQMNSLRSEDTAMYYCARQGSKGWGAMDYWGQGTSVTVSS VL: QIVLTQSPAIMSASPGEKVTMTCRASSSVSFMHWYQQKSGTSPKRWIYETSKLASGVPDRFSGSGSGTSYSLTISSMEAEDAATYYCQQWSSNPLTFGAGTKLELK |
